# This sample holds only a part of the variants without activity.
# B1: TPR 5TU (parent)
# chain: GGAUCUUCUCGAUCUAACAAAAAAGACAAAUCUGCCACAAAGCUUGAGAGCAUCUUCGGAUGCAGAGGCGGCAGCCUUCGGUGGCGCGAUAGCGCCAACGUUCUCAACUAUGACACGCAAAACGCGUGCUCCGUUGAAUGGAGUUUAUCAUG
# Variants of: B1
# Test: polymerase ribozyme fitness, log enrichment relative to wild type (log ratio); higher = more active; in vitro selection for triplet polymerase activity
# In short: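 One round of in vitro selection, in triplicate, was applied to PCR-built, transcribed mutant libraries of each subunit of a heterodimeric triplet polymerase ribozyme. The steps were annealing with a biotinylated primer, partner subunit and triplets, incubation frozen at −7 °C, gel excision of extended constructs, streptavidin-bead capture and RT-PCR. Fitness is the logarithm, base 2, of genotype enrichment over wild-type enrichment from inverse-variance-weighted replicate averages of Illumina-sequenced inputs and outputs, keeping genotypes with ≥10 input reads and ≥1 read per output.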
row,Variant,polymerase ribozyme fitness (log ratio)
1,A28C G67U U144C U151C,≤ -4.2
2,A26U U33G C38U A40C U56A G83A A89G A97G G141C,≤ -4.2
3,A26C A60U U104C,-3.72
4,G25U U53A A91C G92A C105G G141C,≤ -4.2
5,A26U C85U U146G,-1.93
6,C27G C57G U61A A106C,≤ -4.2
7,A24U C87G C96U,≤ -4.2
8,C27U U45A G81A G124U,≤ -4.2
9,G25C A37C C76A U101G U148G,≤ -4.2
10,G25C A91U C96U C99A C108A A138G,≤ -4.2
11,G25U C36G A97G U109C,≤ -4.2
12,C27U U145G,-1.39
13,C27A C85U,-3.43
14,C27A A52G C95A C129G G140U A142U,≤ -4.2
15,G25C G42C C57U G70A C87A G143A,≤ -4.2
16,A26C C123G G141U,-2.47
17,G25U G92C A115G,-3.33
18,C27U A52G U53A C118G,-2.63
19,G25A A39G G68C C95U,≤ -4.2
20,A26C U56C G65A C75U A91U C96U,≤ -4.2
21,A24U C36G U111C C116A,≤ -4.2

row,Variant,polymerase ribozyme fitness (log ratio)
1,A26U C36A U56G C108A A137C,≤ -4.2
2,C27G A28U U55G U61A C76A C96U C116G G133C,≤ -4.2
3,C27U C36A A39C A41G G68A C93A A138G U139A,≤ -4.2
4,G25U G59U C93G C96U U134C,≤ -4.2
5,C27G U44G G58C G71C C93G G94A U101A U102A,≤ -4.2
6,C27G C32A C93U C96U,-4.06
7,A24U U78C C87A,≤ -4.2
8,A26G A37U C75U G92A G133C G143U,≤ -4.2
9,C27U A37C G50U C95A,-2.6
10,G25U A98U,-3.03
11,G25U G62A,-2.84
12,C27U G67A C75U G86C U144C C149A A150G,≤ -4.2
13,G25A G68U U78C A91G C114G,≤ -4.2
14,A24U C57A G83U A97U U146A,-1.51
15,A28C A30U,-3.88
16,A24U C93U,-1.27
17,A28C G42A A113U C116U,≤ -4.2
18,A26U G83C G128A U134G U135A U146C,≤ -4.2
19,A26G C87G U127A C129G,≤ -4.2
20,C27G U31C G62C C63G C85U A142U,≤ -4.2
21,G25A C54A G58A G84A A120G G126U,-3.36

row,Variant,polymerase ribozyme fitness (log ratio)
1,C27U G84A G88A,-4.04
2,A26U C54G,-3.33
3,G25U A49U C93U A119C,-3.95
4,A24U G84C C114U G140U,≤ -4.2
5,A24U G25C A37U G65C U90A C116G C131A G141C,≤ -4.2
6,G25C C99U,-3.13
7,A28C G81C G92U C103G,≤ -4.2
8,A26C G58C A60U G71C C93G,≤ -4.2
9,C27U A47U C96A C103A G117A,≤ -4.2
10,C27G U61A A66G C76A C85A G141A,≤ -4.2
11,G25A U44G U77A G83U U104A,≤ -4.2
12,C27A G62A C87G A91C,≤ -4.2
13,A24U C93U C125G G133A A142G A150U,≤ -4.2
14,A24U U44G A66C G143A,-4.09
15,C27A C43G G92C U101C U127G U146A,≤ -4.2
16,A26G A41G U53A G74A G141A,≤ -4.2
17,A26U C76A G86C G92C C95A U144G,≤ -4.2
18,A26C U61C C85A U151G,≤ -4.2
19,C27G A49C C51G G84U A98G A110G,≤ -4.2
20,G25A C35U G50C G88U C118G U151G,≤ -4.2
21,C27G A52G U53A G100A,≤ -4.2

row,Variant,polymerase ribozyme fitness (log ratio)
1,A28C A40G G59U C87G A110G G143U G152C,≤ -4.2
2,C27G C54A G65C C95U C96A C99A,≤ -4.2
3,C27G A49G A52C U82G A91G,≤ -4.2
4,C27G A39G A89C G92A U127A,-4.11
5,C27A C85A C149U,≤ -4.2
6,A28C A49U U55A U61A C76A A142C U146A,≤ -4.2
7,G25C C57A G83A G86U C96G A106G U127G,≤ -4.2
8,A24U C57U G62A,-0.097
9,G25U G50U C76A C85U G86C G133C,≤ -4.2
10,A26U G58C A60C G100A A115G,≤ -4.2
11,G25U C51U A73U C76U G83U C95U C96U G100U C118G A122G,≤ -4.2
12,G25U A26G C32G C85G A106G C129U G140C G143A,≤ -4.2
13,C27G C38A C85A C87G G126A A137G,≤ -4.2
14,A26U C54G U148A,≤ -4.2
15,A26G C54G C57U C96U C132U,≤ -4.2
16,A24U G34C U56A G84A G133A,-3.92
17,A26C A39G G42U A60G U78C C93G G117A,≤ -4.2
18,G25U A41G,-0.833
19,G25U A41U,-3
20,A26U U55A,-1.66
21,A26U U55G,-1.36

# Reference: the RNAGym collection of RNA variant scans (doi:10.1073/pnas.2313332121)
